According to PMC8148087:
Where two headings read alike, the source gives them in different places.

Assays:
[1] = molecular target: FAM-HLA (model peptide HLA attached to a FAM fluorophore); assay: fluorescence polarisation
[2] = molecular target: FAM-HLA (model peptide HLA attached to a FAM fluorophore); assay: fluorescence polarisation; remark: listed apart in the source

“E. coli DnaK Y145A (from UniProt P0A6Y8 1-638) (natural protein)” showed a Kd [1] of 9 µM and a Kd [2] of over 30 µM.
Work on “human heat shock cognate protein 70 (Hsc70), wild type (from UniProt P11142 1-646) (natural protein)” yielded a Kd [1] of 5 µM and a Kd [2] of 26 µM.
“E. coli DnaK, wild type (from UniProt P0A6Y8 1-638) (natural protein)” gave a Kd [1] of 9 µM and a Kd [2] of over 30 µM.
With “human Hsc70 Y149A (from UniProt P11142 1-646) (natural protein)” the Kd [2] was 4 µM.
In the case of “E. coli DnaK Y145W (from UniProt P0A6Y8 1-638) (natural protein)”, the Kd [1] is reported as 8 µM and the Kd [2] is reported as 4 µM.
